Substrate: O=P(O)(O)OC[C@H]1O[C@@H](n2cnc3c(O)ncnc32)C[C@@H]1O
Test: Kinetic parameters of His-RCL (wild-type) with dNMP substrates, initial velocity measurements
Format: biochemical, rat
Conditions: purine deoxynucleotides; 37.0 °C
Description: The enzyme activity was determined either spectrophotometrically by following one of the reaction products, hypoxanthine or deoxyribose 5-phosphate, or by HPLC separation and UV detection of the released nucleobase and the remaining substrate. a) dIMP was used as a substrate and the hypoxanthine released oxidized to uric acid by xanthine oxidase. […] The decrease in absorbance at 340 nm was followed on a Amersham Biosciences Ultrospec 3100 pro spectrophotometer, using a millimolar absorbance coefficient of 6.22. […] Initial velocity experiments were carried out at variable concentrations of the six deoxynucleoside 5'-monophosphate: dAMP, dCMP, dGMP, dIMP, dTMP and dUMP (Table 1).

B1: His-RCL (deoxynucleoside 5′-monophosphate N-glycosidase) (Rattus norvegicus) (protein)
chain: MAASGEQAPCSVYFCGSIRGGREDQALYARIVSRLRRYGKVLTEHVADAELEPLGEEAAGGDQFIHEQDLNWLQQADVVVAEVTQPSLGVGYELGRAVALGKPILCLFRPQSGRVLSAMIRGAADGSRFQVWDYAEGEVETMLDRYFEAYLPQKTASSSHPSA
notes: made in house; host or cells: E. coli Bli5 (BL21 (DE3) pDIA17), plasmid pET28aRcl
For B1, which Km is on record?
The Km was 450 µM.

And the kcat?
The kcat was 0.0066 s⁻¹.

What about the kcat/Km of the same protein?
Its kcat/Km is 14.7 M⁻¹ s⁻¹.

— patent US7781394B2, “Methods for identifying anti-tumor and/or anti-angiogenesis drugs with deoxynucleoside 5′-monophosphate N-glycosidase as the target” (Institut Pasteur, priority 2006, dated 2010)
